Measurements published in paper PMC8860611.

Target: HIV-1 CA A14C/E45C/W184A/M185A (pET11a-CA (A14C, E45C, W184A and M185A)), assembled into soluble cross-linked hexamers (HIV-1)
Test: cross-linking

## HIV-1 CA A14C/E45C/W184A/M185A (pET11a-CA (A14C, E45C, W184A and M185A)), assembled into soluble cross-linked hexamers (natural protein)
  stoichiometry N: 6
